The target in the experiment is T1, human AMHR2 on AMHR2-OVCAR8 cells (human, UniProt Q16671 18-573).
T1 construct: whole, on cells; Also the target in IHC of human HGSOC tumour tissue sections; also called AMHR2-ED on human EOC cells; anti-Mullerian hormone receptor type II
T1 sequence (looked up): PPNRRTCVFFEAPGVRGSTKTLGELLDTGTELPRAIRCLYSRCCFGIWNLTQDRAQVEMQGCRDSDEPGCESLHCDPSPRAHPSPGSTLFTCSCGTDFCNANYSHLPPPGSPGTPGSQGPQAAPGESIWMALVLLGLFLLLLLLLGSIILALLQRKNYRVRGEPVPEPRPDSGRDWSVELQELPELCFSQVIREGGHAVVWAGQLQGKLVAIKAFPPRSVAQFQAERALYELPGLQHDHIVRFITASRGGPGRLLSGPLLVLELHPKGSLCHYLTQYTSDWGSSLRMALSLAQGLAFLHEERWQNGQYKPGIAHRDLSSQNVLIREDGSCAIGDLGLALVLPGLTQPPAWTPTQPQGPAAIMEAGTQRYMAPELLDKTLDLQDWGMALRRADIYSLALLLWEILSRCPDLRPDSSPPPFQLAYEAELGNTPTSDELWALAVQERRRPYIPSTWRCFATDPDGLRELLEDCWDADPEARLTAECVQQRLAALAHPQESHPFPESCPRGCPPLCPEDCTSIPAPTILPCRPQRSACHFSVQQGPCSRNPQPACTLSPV
The experiment can be described thus: flow cytometry on AMHR2-OVCAR8 cells. The method, then:
The human AMHR2-OVCAR8 cells expressing high levels of human AMHR2 were treated with Fc-receptor block (BD Biosciences, San Jose, CA) and immunostained with 5 μg of a human isotype control IgG1 mAb as well as with 5 μg of the chimeric 4D12G1 mAb and variants 5 and 6 of the humanized 4D12G1 mAb. Cells were then treated with FITC-labeled goat anti-human IgG (BD Biosciences) and analyzed by flow cytometry using a FACSAria II flow cytometer and BDFacsDiva software (BD Biosciences). […] Insets show darkly staining regions of AMHR2-ED expression which occurs primarily in the parenchyma, with some staining also visible in the stroma.

B1: Anti-AMHR2-ED 4D12G1 Chimeric antibody (antibody, human IgG1, kappa, V domains shown)
VH: DVKLVESGGGLVKLGGSLKLSCAASGFTFSRYFMSWVRQTPEKRLELVAAINSDGGRTYYPDTVKGRFTISRDNAKNTLYLQMSSLKSEDTALYYCTRHIYSYYEDYFDYWGQGTTLTVSS
VL: DVVMTQTPLSLPVSLGDQASISCRSSQSLVHSNGNTYLHWYLQKPGQSPKLLIYKVSKRFSGVPDRFSGSGSGTDFTLKISRVEAEDLGVYFCSQSTHVYTFGGGTKLEIKR
notes: also called chimeric 4D12G1 mAb; Chimeric 4D12G1
As to B1, the binding result is on record as “binds”.

B2: Anti-AMHR2-ED 4D12G1 Variant 5 antibody (antibody, human IgG1, kappa)
heavy: not shown
light: DVVMTQTPLSSPVTLGQPASISCRSSQSLVHSNGNTYLHWYQQRPGQPPKLLIYKVSKRFSGVPDRFSGSGSGTDFTLKISRVEAEDVGVYFCSQSTHVYTFGQGTKLEIKRTVAAPSVFIFPPSDEQLKSGTASVVCLLNNFYPREAKVQWKVDNALQSGNSQESVTEQDSKDSTYSLSSTLTLSKADYEKHKVYACEVTHQGLSSPVTKSFNRGEC
notes: Humanized variant of 4D12G1; also called humanized 4D12G1 variant 5 mAb; 4D12G1 variant 5 mAb
Regarding B2, the binding result is on record as “binds”.

B3: Anti-AMHR2-ED 4D12G1 Variant 6 antibody (antibody, human IgG1, kappa)
heavy: not shown
light: B2 light
notes: Humanized variant of 4D12G1; also called humanized 4D12G1 variant 6 mAb; Hu4D12G1-6
B3: the binding result was “binds”.

The values above are taken from patent US20260167733A1 (CLEVELAND CLINIC FOUNDATION, published 2026).
